Drawing on PMC9174199, “Structural basis for MTA1c-mediated DNA N6-adenine methylation” (Nature Communications, 2022), this text covers percent of parent for 20 molecules.

The chains are these.
B1: His6GST-Tthp1 L173A (protein)
chain: MSLKKGKFQHNQSKSLWNYTLSPGWREEEVKILKSALQLFGIGKWKKIMESGCLPGKSIGQIYMQTQRLLGQQSLGDFMGLQIDLEAVFNQNMKKQDVLRKNNCIINTGDNPTKEERKRRIEQNRKIYGLSAKQIAEIKLPKVKKHAPQYMTLEDIENEKFTNLEILTHLYNAKAEIVRRLAEQGETIAQPSIIKSLNNLNHNLEQNQNSNSSTETKVTLEQSGKKKYKVLAIEETELQNGPIATNSQKKSINGKRKNNRKINSDSEGNEEDISLEDIDSQESEINSEEIVEDDEEDEQIEEPSKIKKRKKNPEQESEEDDIEEDQEEDELVVNEEEIFEDDDDDEDNQDSSEDDDDDED
B2: His6GST-Tthp1 L167A; L170A (protein)
chain: MSLKKGKFQHNQSKSLWNYTLSPGWREEEVKILKSALQLFGIGKWKKIMESGCLPGKSIGQIYMQTQRLLGQQSLGDFMGLQIDLEAVFNQNMKKQDVLRKNNCIINTGDNPTKEERKRRIEQNRKIYGLSAKQIAEIKLPKVKKHAPQYMTLEDIENEKFTNLEIATHAYNLKAEIVRRLAEQGETIAQPSIIKSLNNLNHNLEQNQNSNSSTETKVTLEQSGKKKYKVLAIEETELQNGPIATNSQKKSINGKRKNNRKINSDSEGNEEDISLEDIDSQESEINSEEIVEDDEEDEQIEEPSKIKKRKKNPEQESEEDDIEEDQEEDELVVNEEEIFEDDDDDEDNQDSSEDDDDDED
B3: His6GST-Tthp1 I177A (protein)
chain: MSLKKGKFQHNQSKSLWNYTLSPGWREEEVKILKSALQLFGIGKWKKIMESGCLPGKSIGQIYMQTQRLLGQQSLGDFMGLQIDLEAVFNQNMKKQDVLRKNNCIINTGDNPTKEERKRRIEQNRKIYGLSAKQIAEIKLPKVKKHAPQYMTLEDIENEKFTNLEILTHLYNLKAEAVRRLAEQGETIAQPSIIKSLNNLNHNLEQNQNSNSSTETKVTLEQSGKKKYKVLAIEETELQNGPIATNSQKKSINGKRKNNRKINSDSEGNEEDISLEDIDSQESEINSEEIVEDDEEDEQIEEPSKIKKRKKNPEQESEEDDIEEDQEEDELVVNEEEIFEDDDDDEDNQDSSEDDDDDED
B4: His6GST-Tthp1 L167A; L170A; L173A (protein)
chain: MSLKKGKFQHNQSKSLWNYTLSPGWREEEVKILKSALQLFGIGKWKKIMESGCLPGKSIGQIYMQTQRLLGQQSLGDFMGLQIDLEAVFNQNMKKQDVLRKNNCIINTGDNPTKEERKRRIEQNRKIYGLSAKQIAEIKLPKVKKHAPQYMTLEDIENEKFTNLEIATHAYNAKAEIVRRLAEQGETIAQPSIIKSLNNLNHNLEQNQNSNSSTETKVTLEQSGKKKYKVLAIEETELQNGPIATNSQKKSINGKRKNNRKINSDSEGNEEDISLEDIDSQESEINSEEIVEDDEEDEQIEEPSKIKKRKKNPEQESEEDDIEEDQEEDELVVNEEEIFEDDDDDEDNQDSSEDDDDDED
B5: His6GST-Tthp1 L170A (protein)
chain: MSLKKGKFQHNQSKSLWNYTLSPGWREEEVKILKSALQLFGIGKWKKIMESGCLPGKSIGQIYMQTQRLLGQQSLGDFMGLQIDLEAVFNQNMKKQDVLRKNNCIINTGDNPTKEERKRRIEQNRKIYGLSAKQIAEIKLPKVKKHAPQYMTLEDIENEKFTNLEILTHAYNLKAEIVRRLAEQGETIAQPSIIKSLNNLNHNLEQNQNSNSSTETKVTLEQSGKKKYKVLAIEETELQNGPIATNSQKKSINGKRKNNRKINSDSEGNEEDISLEDIDSQESEINSEEIVEDDEEDEQIEEPSKIKKRKKNPEQESEEDDIEEDQEEDELVVNEEEIFEDDDDDEDNQDSSEDDDDDED
B6: His6GST-Tthp1 L167A (protein)
chain: MSLKKGKFQHNQSKSLWNYTLSPGWREEEVKILKSALQLFGIGKWKKIMESGCLPGKSIGQIYMQTQRLLGQQSLGDFMGLQIDLEAVFNQNMKKQDVLRKNNCIINTGDNPTKEERKRRIEQNRKIYGLSAKQIAEIKLPKVKKHAPQYMTLEDIENEKFTNLEIATHLYNLKAEIVRRLAEQGETIAQPSIIKSLNNLNHNLEQNQNSNSSTETKVTLEQSGKKKYKVLAIEETELQNGPIATNSQKKSINGKRKNNRKINSDSEGNEEDISLEDIDSQESEINSEEIVEDDEEDEQIEEPSKIKKRKKNPEQESEEDDIEEDQEEDELVVNEEEIFEDDDDDEDNQDSSEDDDDDED
B7: His6GST-Tthp1 L167A; L170A; L173A; I177A (protein)
chain: MSLKKGKFQHNQSKSLWNYTLSPGWREEEVKILKSALQLFGIGKWKKIMESGCLPGKSIGQIYMQTQRLLGQQSLGDFMGLQIDLEAVFNQNMKKQDVLRKNNCIINTGDNPTKEERKRRIEQNRKIYGLSAKQIAEIKLPKVKKHAPQYMTLEDIENEKFTNLEIATHAYNAKAEAVRRLAEQGETIAQPSIIKSLNNLNHNLEQNQNSNSSTETKVTLEQSGKKKYKVLAIEETELQNGPIATNSQKKSINGKRKNNRKINSDSEGNEEDISLEDIDSQESEINSEEIVEDDEEDEQIEEPSKIKKRKKNPEQESEEDDIEEDQEEDELVVNEEEIFEDDDDDEDNQDSSEDDDDDED
B8: Paramecium tetraurelia MTA9 (PteMTA9), untagged V219A (protein)
chain: MGKNQRESLRMRLRYNEPGSENKRINYFKLNQGYDITEDDSEYMDEQDSYKAFKKIRKYKTKSKEDKVTCDNLEVLLQWKGSINCQSYETDQKKIVVLKKILGTDLSQYAKGVQGIFIDNLFKKDLKNLDISKKLISNGILFIWSDKSLINEILETMENKGFTYIENLVVVQLSLEQALEELNKHMKIEQTEDAVLDNLDFLQQKVQVKDLILHRPSKALNQSKQVLIMFRKFDEQKSQLELRHQRTPDVLFDIVNNGKSCLKTKEYIYQTIETLLPKSQLMEIFAQKDQPRKGWISVCENK
B9: Paramecium tetraurelia MTA9 (PteMTA9), untagged Y164A (protein)
chain: MGKNQRESLRMRLRYNEPGSENKRINYFKLNQGYDITEDDSEYMDEQDSYKAFKKIRKYKTKSKEDKVTCDNLEVLLQWKGSINCQSYETDQKKIVVLKKILGTDLSQYAKGVQGIFIDNLFKKDLKNLDISKKLISNGILFIWSDKSLINEILETMENKGFTAIENLVVVQLSLEQALEELNKHMKIEQTEDAVLDNLDFLQQKVQVKDLILHRPSKVLNQSKQVLIMFRKFDEQKSQLELRHQRTPDVLFDIVNNGKSCLKTKEYIYQTIETLLPKSQLMEIFAQKDQPRKGWISVCENK
B10: Paramecium tetraurelia MTA9 (PteMTA9), untagged L220A (protein)
chain: MGKNQRESLRMRLRYNEPGSENKRINYFKLNQGYDITEDDSEYMDEQDSYKAFKKIRKYKTKSKEDKVTCDNLEVLLQWKGSINCQSYETDQKKIVVLKKILGTDLSQYAKGVQGIFIDNLFKKDLKNLDISKKLISNGILFIWSDKSLINEILETMENKGFTYIENLVVVQLSLEQALEELNKHMKIEQTEDAVLDNLDFLQQKVQVKDLILHRPSKVANQSKQVLIMFRKFDEQKSQLELRHQRTPDVLFDIVNNGKSCLKTKEYIYQTIETLLPKSQLMEIFAQKDQPRKGWISVCENK
B11: His6GST-Tthp2 H39A (protein)
chain: MKKNGKSQNQPLDFTQYAKNMRKDLSNQDICLEDGALNASYFLTKKGQYWTPLNQKALQRGIELFGVGNWKEINYDEFSGKANIVELELRTCMILGINDITEYYGKKISEEEQEEIKKSNIAKGKKENKLKDNIYQKLQQMQ
B12: His6GST-Tthp2 Y41A (protein)
chain: MKKNGKSQNQPLDFTQYAKNMRKDLSNQDICLEDGALNHSAFLTKKGQYWTPLNQKALQRGIELFGVGNWKEINYDEFSGKANIVELELRTCMILGINDITEYYGKKISEEEQEEIKKSNIAKGKKENKLKDNIYQKLQQMQ
B13: His6GST-Tthp2 Y17A (protein)
chain: MKKNGKSQNQPLDFTQAAKNMRKDLSNQDICLEDGALNHSYFLTKKGQYWTPLNQKALQRGIELFGVGNWKEINYDEFSGKANIVELELRTCMILGINDITEYYGKKISEEEQEEIKKSNIAKGKKENKLKDNIYQKLQQMQ
B14: His6GST-Tthp2 D24A (protein)
chain: MKKNGKSQNQPLDFTQYAKNMRKALSNQDICLEDGALNHSYFLTKKGQYWTPLNQKALQRGIELFGVGNWKEINYDEFSGKANIVELELRTCMILGINDITEYYGKKISEEEQEEIKKSNIAKGKKENKLKDNIYQKLQQMQ
B15: His6GST-Tthp2 R22A (protein)
chain: MKKNGKSQNQPLDFTQYAKNMAKDLSNQDICLEDGALNHSYFLTKKGQYWTPLNQKALQRGIELFGVGNWKEINYDEFSGKANIVELELRTCMILGINDITEYYGKKISEEEQEEIKKSNIAKGKKENKLKDNIYQKLQQMQ
B16: His6GST-Tthp2 S26A (protein)
chain: MKKNGKSQNQPLDFTQYAKNMRKDLANQDICLEDGALNHSYFLTKKGQYWTPLNQKALQRGIELFGVGNWKEINYDEFSGKANIVELELRTCMILGINDITEYYGKKISEEEQEEIKKSNIAKGKKENKLKDNIYQKLQQMQ

The first assay concerns the target T1, Tetrahymena thermophila MTA1 (TthMTA1), untagged.
T1 chain: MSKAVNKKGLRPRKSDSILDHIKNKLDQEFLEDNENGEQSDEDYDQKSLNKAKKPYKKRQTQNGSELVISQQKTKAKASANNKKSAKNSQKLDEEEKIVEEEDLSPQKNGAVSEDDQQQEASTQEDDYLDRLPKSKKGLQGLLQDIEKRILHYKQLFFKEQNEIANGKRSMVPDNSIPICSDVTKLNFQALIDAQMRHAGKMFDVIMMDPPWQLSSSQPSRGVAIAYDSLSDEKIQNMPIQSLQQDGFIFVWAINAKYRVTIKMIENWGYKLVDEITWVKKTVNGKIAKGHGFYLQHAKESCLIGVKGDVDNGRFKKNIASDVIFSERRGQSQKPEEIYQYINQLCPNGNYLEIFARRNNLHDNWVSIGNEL
In words: GST pull-down. Particulars: chain shown with the change;; parent: 100.
On to B1, for which the percent of parent is 78%.

Take B2: the percent of parent turned out to be 0%.

In the case of B3, the percent of parent came to 78%.

For the molecule B4, the percent of parent stood at 0%.

Regarding B5, the percent of parent stood at 47%.

With B6, the percent of parent is 48%.

As to B7, the percent of parent worked out at 0%.

The target of a further assay is T2, GST-MTA1 (residues 171-372).
T2 chain: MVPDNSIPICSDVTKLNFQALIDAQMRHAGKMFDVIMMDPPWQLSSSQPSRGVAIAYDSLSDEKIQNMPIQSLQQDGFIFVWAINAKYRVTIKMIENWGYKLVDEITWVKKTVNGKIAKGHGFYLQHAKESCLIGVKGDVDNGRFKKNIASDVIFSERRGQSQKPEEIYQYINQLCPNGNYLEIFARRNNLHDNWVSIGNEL
In words: GST pull-down. Conditions: chain shown with the change;; parent: 100.
For the molecule B8, the percent of parent came out at 45%.

Take B9: the percent of parent amounted to 0%.

On to B10, for which the percent of parent stood at 73%.

In the next assay the target is Paramecium tetraurelia MTA9 (PteMTA9), untagged. In words: GST pull-down. Particulars: parent: 100.
Turning to GST-MTA1 (residues 171-372) L295A, the percent of parent turned out to be 7%.

GST-MTA1 (residues 171-372) Q296A: the percent of parent came out at 95%.

As for GST-MTA1 (residues 171-372) Y294A, the percent of parent worked out at 12%.

With GST-MTA1 (residues 171-372) H297A, the percent of parent worked out at 97%.

The target of the next assay is T1, Tetrahymena thermophila MTA1 (TthMTA1), …. In words: GST pull-down, gray scanning of bound MTA1 band. Conditions: chain shown with the change;; parent: 100.
Take B11: the percent of parent is 0%.

Regarding B12, the percent of parent came out at 0%.

As to B13, the percent of parent amounted to 0%.

Consider B14, for which the percent of parent was 77%.

Turning to B15, the percent of parent stood at 0%.

For B16, the percent of parent worked out at 50%.
